Read-outs that look alike come from different tables or passages of the source.
B1: ANAC013(254–274;L266I) (peptide, UniProt F4IED2 254-274, looked up)
chain: NLEEDMYLEINDIMEPEPEPT
notes: ANAC013, Arabidopsis thaliana, AT1G32870, residues 254-274 with Leu266 to Ile; Probably made from the ANAC013(254–274) plasmid of previous work and purified in the same way; also called AtANAC013(254–274;L266I)
B2: AtDREB2A(244–272) (peptide, UniProt O82132 244-272, looked up)
chain: WPNDVDQSHLDSSDMFDVDELLRDLNGDD
B3: AtDREB2A(244–272;L264I) (peptide, UniProt O82132 244-272, looked up)
chain: WPNDVDQSHLDSSDMFDVDEILRDLNGDD
notes: DREB2A, Arabidopsis thaliana, AT5G05410, residues 244-272 with Leu264 to Ile; source: mutation by QuikChange
B4: ANAC087(315–335) (peptide, UniProt Q9FK44 315-335, looked up)
chain: MVNGSKSYEDLCDLRGDLWDF
notes: NAC transcription factor ANAC087, Arabidopsis thaliana, AT5G18270, residues 315-335
B5: AtRCD1-RST(499–572) (domain or fragment, Arabidopsis thaliana, UniProt Q8RY59 499-572, looked up)
chain: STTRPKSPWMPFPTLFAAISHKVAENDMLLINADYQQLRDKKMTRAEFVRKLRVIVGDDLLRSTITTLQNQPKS
notes: RST domain of Radical-Induced Cell Death1 (RCD1), Arabidopsis thaliana, residues 499-572; also called AtRST(499–572); Arabidopsis RST domain

How the values were obtained:
[1] = molecular target: RCD1 RST (Arabidopsis thaliana) (UniProt Q8RY59); settings: cited from earlier work
[2] = molecular target: RCD1 499-572 (Arabidopsis thaliana) (UniProt Q8RY59); test: ITC; settings: cited from earlier work
[3] = molecular target: GmDREB2A(273–290) (Glycine max (soybean)); test: ITC; RST domain in the syringe (100–300 µM) titrated into the TF fragment in the cell (10–30 µM); 25 °C; 50 mM Hepes, pH 7.4, 100 mM NaCl; one set of sites model
[4] = molecular target: ANAC013(254–274) (Arabidopsis thaliana) (UniProt F4IED2); test: as above
AtDREB2A(244–272) = molecular target: B2; test: as above
AtRCD1-RST(499–572) [5] = molecular target: B5; test: as above; settings: both partners purified
AtRCD1-RST(499–572) [6] = molecular target: B5; test: ITC; ANAC087(315–335) in the syringe (100–300 µM) titrated into the RST domain in the cell (10–30 µM); 25 °C; 50 mM Hepes, pH 7.4, 100 mM NaCl; one set of sites model; settings: both partners purified
[7] = molecular target: HvDRF1.1(255–273) (Hordeum vulgare (barley)); test: ITC; RST domain in the syringe (100–300 µM) titrated into the TF fragment in the cell (10–30 µM); 25 °C; 50 mM Hepes, pH 7.4, 100 mM NaCl; one set of sites model
HvNAC013(176–346) = molecular target: T1, HvNAC013(176–346) (Hordeum vulgare (barley), UniProt F2EJH0 176-346); test: as above; settings: both partners purified
T1 construct: HvNAC013, barley (Hordeum vulgare) NAC transcription factor, ID AK376297.1, residues 176-346; also called barley ortholog of ANAC046; source: plasmid from previous work
T1 sequence (looked up): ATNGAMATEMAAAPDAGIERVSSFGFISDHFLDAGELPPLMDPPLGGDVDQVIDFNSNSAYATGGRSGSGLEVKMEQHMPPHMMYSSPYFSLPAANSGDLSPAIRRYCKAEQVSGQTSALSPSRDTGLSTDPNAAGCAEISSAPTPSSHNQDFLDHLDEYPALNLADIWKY

ANAC013(254–274) (Arabidopsis thaliana), sequence (F4IED2 254-274): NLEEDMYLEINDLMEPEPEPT

ANAC046 (from UniProt Q9SQQ6)
Kd [1]: 609 nM

ANAC013 254-274 (from UniProt F4IED2)
Kd [2]: 9 nM

GmRCD1-RST(483–583) (domain or fragment)
Kd [3]: 2590 nM | dH [3]: -5.62 kcal/mol | stoichiometry N [3]: 0.98 | Kd [4]: 526 nM | dH [4]: -8.77 kcal/mol | stoichiometry N [4]: 0.94 | Kd (AtDREB2A(244–272)): 320 nM | dH (AtDREB2A(244–272)): -9.25 kcal/mol | stoichiometry N (AtDREB2A(244–272)): 0.95

B1
Kd (AtRCD1-RST(499–572) [5]): 223 nM

B2
Kd (AtRCD1-RST(499–572) [5]): 16 nM

B3
Kd (AtRCD1-RST(499–572) [5]): 39 nM

B4
Kd (AtRCD1-RST(499–572) [6]): 1750 nM | dH (AtRCD1-RST(499–572) [6]): -3.8 kcal/mol | stoichiometry N (AtRCD1-RST(499–572) [6]): 0.93

B5
Kd [7]: 450 nM | dH [7]: -11.6 kcal/mol | Kd [3]: 397 nM | dH [3]: -8.34 kcal/mol | Kd (HvNAC013(176–346)): 343 nM | dH (HvNAC013(176–346)): -1.08 kcal/mol | stoichiometry N (HvNAC013(176–346)): 1.03 | dH (AtDREB2A(244–272); both partners purified): -15.1 kcal/mol | stoichiometry N (AtDREB2A(244–272); both partners purified): 0.9
